From publication doi:10.1101/2020.01.13.904870 (bioRxiv, 2020)
One block for each molecule: values may come before it.

Tests used:
[1] = biological target: Arabidopsis thaliana Fructosamine-3-kinase homolog (AtFN3K), wild type (Arabidopsis thaliana) (UniProt Q9LEW8); assay: SEC
[2] = biological target: AtFN3K C32A/C236A/C196A triple cysteine mutant (Arabidopsis thaliana); assay: SEC
[3] = biological target: AtFN3K C32A/C236A/C196A triple cysteine mutant (Arabidopsis thaliana); assay: AUC
[4] = biological target: the molecule itself; assay: non-reducing SDS-PAGE

- stoichiometry N [1]: 2
Molecule: Arabidopsis thaliana Fructosamine-3-kinase homolog (AtFN3K), wild type (from UniProt Q9LEW8 31-326) (enzyme)

- stoichiometry N [2]: 2
- stoichiometry N [3]: 2
Molecule: AtFN3K C32A/C236A/C196A triple cysteine mutant (enzyme)

B1: Recombinant His-HsFN3K (human Fructosamine-3-kinase), wild type (enzyme, UniProt Q9H479 1-309, looked up)
chain: MEQLLRAELRTATLRAFGGPGAGCISEGRAYDTDAGPVFVKVNRRTQARQMFEGEVASLEALRSTGLVRVPRPMKVIDLPGGGAAFVMEHLKMKSLSSQASKLGEQMADLHLYNQKLREKLKEEENTVGRRGEGAEPQYVDKFGFHTVTCCGFIPQVNEWQDDWPTFFARHRLQAQLDLIEKDYADREARELWSRLQVKIPDLFCGLEIVPALLHGDLWSGNVAEDDVGPIIYDPASFYGHSEFELAIALMFGGFPRSFFTAYHRKIPKAPGFDQRLLLYQLFNYLNHWNHFGREYRSPSLGTMRRLLK
- binding result [4]: binds
